According to patent publication US20260125454A1:
Like-named read-outs stand apart in the source and are kept apart here.

Experiments:
[1] = target: CGRP antigen; assay: cell-based or functional assay
[2] = target: CGRP antigen; assay: cell-based or functional assay; remark: listed apart in the source
[3] = target: CGRP antigen; assay: cell-based or functional assay; remark: listed apart in the source
[4] = target: Biotin-huCGRPaSA (human); assay: ELISA, supernatant; relative to chimeric C245
[5] = target: synthetic human α-CGRP polypeptide (SEQ ID NO: 97)-NH2 (human); assay: BLI (Octet), antibody on AHC2, 50 nM CGRP; association pH 5.5, dissociation pH 5.5
[6] = target: synthetic human α-CGRP polypeptide (SEQ ID NO: 97)-NH2 (human); assay: BLI (Octet), antibody on AHC2, 50 nM CGRP; association pH 7.4, dissociation pH 7.4
[7] = target: synthetic human α-CGRP polypeptide (SEQ ID NO: 97)-NH2 (human); assay: BLI (Octet), antibody on AHC2, 50 nM CGRP; association pH 7.4, dissociation pH 5.5

Chain of synthetic human α-CGRP polypeptide (SEQ ID NO: 97)-NH2 (human) (peptide, as listed by the source): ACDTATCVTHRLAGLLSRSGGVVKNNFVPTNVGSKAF
Chain of Biotin-huCGRPaSA (human) (peptide, as listed by the source): as above

Binder | IC50 [1] | IC50 [2] | Relative binding activity (%) vs Ref(Teva) [2] | IC50 [3] | Relative binding activity, % [4] | Binding signal (nm) [5] | koff [5] | Binding signal (nm) [6] | koff [6] | Binding signal (nm) [7] | koff [7]
fremanezumab from Teva (antibody, INN chains, looked up, V domains shown) VH: EVQLVESGGGLVQPGGSLRLSCAASGFTFSNYWISWVRQAPGKGLEWVAEIRSESDASATHYAEAVKGRFTISRDNAKNSLYLQMNSLRAEDTAVYYCLAYFDYGLAIQNYWGQGTLVTVSS VL: EIVLTQSPATLSLSPGERATLSCKASKRVTTYVSWYQQKPGQAPRLLIYGASNRYLGIPARFSGSGSGTDFTLTISSLEPEDFAVYYCSQSYNYPYTFGQGTKLEIK | 0.0613 µg/mL | 0.0847 µg/mL | 100% | 0.0563 µg/mL | – | – | – | – | – | – | –
hu34 (antibody, V domains shown) VH: QVQLVQSGAEVKKPGASVKVSCKASGYTFIDFNMHWVRQAPGQRLEWMGYIYPYNGDVVYNQNFTNRVTLTVDTSSSTAYMELSSLRSEDTAVYYCAREGLGGYWGQGTLVTVSS VL: DIVLTQSPDSLAVSLGERATINCKASQNIDFDGYAYMNWYQHKPGQPPKVLIYSVFNLESGVPDRFSGSGSGTDFTLTISSLQAEDVAVYYCQQSHEVPYTFGQGTKLEIK | – | – | – | – | 5% | – | – | – | – | – | –
Galcanezumab Analogue (antibody, INN chains, looked up, V domains shown, in-house analogue) VH: QVQLVQSGAEVKKPGSSVKVSCKASGYTFGNYWMQWVRQAPGQGLEWMGAIYEGTGKTVYIQKFADRVTITADKSTSTAYMELSSLRSEDTAVYYCARLSDYVSGFGYWGQGTTVTVSS VL: DIQMTQSPSSLSASVGDRVTITCRASKDISKYLNWYQQKPGKAPKLLIYYTSGYHSGVPSRFSGSGSGTDFTLTISSLQPEDFATYYCQQGDALPPTFGGGTKVEIK | – | – | – | – | – | 0.11 nm | 0.000251 s⁻¹ | 0.14 nm | 8.36e-05 s⁻¹ | 0.12 nm | 0.00871 s⁻¹
Fremanezumab Analogue (antibody, INN chains, looked up, V domains shown, in-house analogue) VH: EVQLVESGGGLVQPGGSLRLSCAASGFTFSNYWISWVRQAPGKGLEWVAEIRSESDASATHYAEAVKGRFTISRDNAKNSLYLQMNSLRAEDTAVYYCLAYFDYGLAIQNYWGQGTLVTVSS VL: EIVLTQSPATLSLSPGERATLSCKASKRVTTYVSWYQQKPGQAPRLLIYGASNRYLGIPARFSGSGSGTDFTLTISSLEPEDFAVYYCSQSYNYPYTFGQGTKLEIK | – | – | – | – | – | 0.08 nm | 5.1e-05 s⁻¹ | 0.12 nm | < 1e-05 s⁻¹ | 0.1 nm | < 1e-05 s⁻¹
